# Values quoted from earlier work, collected in patent US20230146896A1, “COMPOSITION AND METHOD FOR TREATING ALZHEIMER'S DISEASE” (Eisai R&D Management Co., Ltd., priority 2016, published 2023).
# B1: BAN2401: humanized IgG1 monoclonal version of mAb158; heavy chain variable SEQ ID NO:1, light chain variable SEQ ID NO:2 (antibody, V domains shown)
# VH: EVQLVESGGGLVQPGGSLRLSCSASGFTFSSFGMHWVRQAPGKGLEWVAYISSGSSTIYYGDTVKGRFTISRDNAKNSLFLQMSSLRAEDTAVYYCAREGGYYYGRSYYTMDYWGQGTTVTVSS
# VL: DVVMTQSPLSLPVTPGAPASISCRSSQSIVHSNGNTYLEWYLQKPGQSPKLLIYKVSNRFSGVPDRFSGSGSGTDFTLRISRVEAEDVGIYYCFQGSHVPPTFGPGTKLEIK
# Conditions: previous studies, intravenous infusion; typically occurred on the first infusion
molecule,measurement,value
B1,adverse events (infusion reactions),infusion reactions were common AEs
